The record followed here is IntAct's records for PubMed 21903585.

The labels stand for the following.
B1: RAD51-associated protein 1 (Homo sapiens), Q96B01-2 (parent)
chain: MVRPVRHKKPVNYSQFDHSDSDDDFVSATVPLNKKSRTAPKELKQDKPKPNLNNLRKEEIPVQEKTPKKRMALDDKLYQRDLEVALALSVKELPTVTTNVQNSQDKSIEKHGSSKIETMNKSPHISNCSVASDYLDLDKITVEDDVGGVQGKRKAASKAAAQQRKILLEGSDGDSANDTEPDFAPGEDSEDDSDFCESEDNDEDFSMRKSKVKEIKKKEVKVKSPVEKKEKKSKSKCNALVTSVDSAPAAVKSESQSLPKKVSLSSDTTRKPLEIRSPSAESKKPKWVPPAASGGSRSSSSPLVVVSVKSPNQSLRLGLSRLARVKPLHPNATST
partner: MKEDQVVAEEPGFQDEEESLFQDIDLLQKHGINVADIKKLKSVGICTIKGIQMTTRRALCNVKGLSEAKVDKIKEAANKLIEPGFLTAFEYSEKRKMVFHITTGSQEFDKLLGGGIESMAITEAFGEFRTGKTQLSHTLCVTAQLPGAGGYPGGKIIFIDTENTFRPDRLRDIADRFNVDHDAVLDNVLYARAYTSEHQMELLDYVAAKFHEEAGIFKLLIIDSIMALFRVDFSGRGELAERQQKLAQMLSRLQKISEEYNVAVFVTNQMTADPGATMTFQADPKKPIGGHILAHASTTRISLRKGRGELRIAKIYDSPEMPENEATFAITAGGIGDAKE

The variants in the test derive from B1. As to conditions: with dmc1_human DMC1, Q14565.
Turning to W287A, the “effect of a mutation on the interaction” value was “disrupting interaction”.
